From patent publication US20240100174A1, “PROTEIN-PEG INTERACTIONS THAT REDIRECT THE THERMAL UNFOLDING PATHWAY OF PEGYLATED HUMAN GALECTIN-3C” (UNIVERSITY OF FLORIDA RESEARCH FOUNDATION, INCORPORATED, priority 2022, published 2024)
Numbering of substitutions follows the chain as printed. Numbers in names are those of the source.

B1: Gal3C: carbohydrate recognition domain of human galectin-3, residues A111 to E252; SEQ ID NO: 13 (protein)
chain: MAGPLIVPYNLPLPGGVVPRMLITILGTVKPNANRIALDFQRGNDVAFHFNPRFNENNRRVIVCNTKLDNNWGREERQSVFPFESGKPFKIQVLVEPDHFKVAVNDAHLLQYNHRVKKLNEISKLGISGDIDLTSASYTMILEHHHHHH
B2: Gal3C[T243C, K139I, K196I]: Gal3C[T243C] variant with lysines K139 and K196 replaced by isoleucines (protein)
chain: MADNFSLHDALSGSGNPNPQGWPGAWGNQPAGAGGYPGASYPGAYPGQAPPGAYPGQAPPGAYPGAPGAYPGAPAPGVYPGPPSGPGAYPSSGQPSATGAYPATGPYGAPAGPLIVPYNLPLPGGVVPRMLITILGTVIPNANRIALDFQRGNDVAFHFNPRFNENNRRVIVCNTKLDNNWGREERQSVFPFESGIPFKIQVLVEPDHFKVAVNDAHLLQYNHRVKKLNEISKLGISGDIDLCSASYTMI
B3: Gal3C[T243C,K139I,K196I,K199I]: Gal3C[T243C] variant with lysines K139, K196 and K199 replaced by isoleucines (protein)
chain: B2 chain with K199I

Tests used:
[1] = Variable temperature circular dichroism (CD) thermal unfolding; assay type: physicochemical; details: for Tm1 ± StDev: normalized CD at 220 nm vs. temperature, 3 replicates averaged, ramp 30-90° C. at 1° C. per minute; for thermal unfolding behaviour / formation of unfolding intermediate: result in words, for polymer conjugates the selected SEC fractions; for Tm2 ± StDev: second unfolding transition, cells printed as ND with footnote b
Procedure: CD spectroscopic data were recorded with an Applied Photophysics™ Chirascan spectrophotometer equipped with a Quantum Northwestern Peltier temperature control device and operating with Chirascan v4.7.0 and Pro-Data™ Viewer software. Samples were prepared in PBS at final concentrations of 10 μM. All samples were contained in 2 mm tapered quartz cuvettes, and a temperature probe was inserted through the cuvette cap to monitor the sample temperature in real time. The following parameters were used for constant temperature experiments: CD signal measured in millidegrees, bandwidth of 1.0 nm, wavelength scan from 200-280 nm, step size of 2.0 nm. Spectra were background subtracted against the sample buffer. For thermal unfolding experiments, a linear thermal ramp was applied from 30° C. to 90° C. at 1° C. per minute. All spectra were measured in triplicate, and data were normalized to account for slight differences in protein concentration.
To calculate melting temperatures of unconjugated Gal3C, Gal3C[T243C], and Gal3C[T243C] variants containing lysine replacements, the normalized data were fit to a Boltzmann sigmoidal function in Origin v8.5. For the data fitting, no parameters were fixed, and the ‘x’ parameter defined as the center of the data was interpreted as the melting temperature (Tm). Variable temperature CD data of PEGylated Gal3C[T243C] and Gal3C[T243C] variants were fit with a sum of two Boltzmann sigmoidal functions, as shown below:
where ‘A1’, ‘A2’, and ‘A3’ represent three plateaus of the CD signal, ‘dx1’ and ‘dx2’ are the change in x between the plateaus for each melting transition, and ‘x1’ and ‘x2’ are the two Tm values extracted by the fit for the first and second unfolding transitions, respectively. Because the third plateau, A3, occurred at temperatures higher than the experimentally accessible range, this value was estimated. A single wavelength for plotting on the y-axis was selected by calculating the wavelength of greatest CD signal change for each PEGylated construct.
To record a CD spectrum of Gal3C[T243C] with free PEG, a stock solution of methoxy-PEG (mPEG) in 1×PBS was added immediately before the experiment to a solution containing protein (20 μM, 1 ×PBS) to a final concentration of 22 μM mPEG. All thermal melt parameters were the same as listed in the above described experiments.
CD spectroscopic data were recorded with an Applied Photophysics Chirascan spectrophotometer equipped with a Quantum Northwestern Peltier temperature control device and operating with Chirascan v4.7.0 and Pro-Data Viewer software, following procedures used in our previous study.^4 Spectra were background subtracted against the sample buffer. For thermal unfolding experiments, a linear thermal ramp was applied from 30° C. to 90° C. at 1° C. per minute with samples concentrated to 10 μM in PBS. All spectra were measured in triplicate, and data were normalized to account for slight differences in protein concentration.
Full wavelength (200-280 nm) CD spectra for each construct (FIG. 43) were used to calculate a wavelength of greatest change (222 or 224 nm) to create single wavelength CD vs. temperature plots (FIG. 30H-J and FIG. 31F-G). The single wavelength CD signal vs. temperature plot of Gal3C[T243C] used data acquired at 220 nm, which was the wavelength of greatest change for the unmodified protein. To calculate melting temperatures, the normalized data were fit to a Boltzmann sigmoidal function in Origin v8.5. For the data fitting, no parameters were fixed, and the ‘x’ parameter defined as the center of the data was interpreted as the melting temperature (Tm).

[2] = Equilibrium binding of lactose, intrinsic tryptophan fluorescence; details: ligand lactose; average ± standard deviation of 3 replicated experiments; PBS; read-out: Kd (equilibrium binding constant)
Procedure: (§1) Equilibrium binding data were recorded using a protocol adapted from a previous procedure from Restuccia, et al (38). Intrinsic tryptophan fluorescence was monitored using a Cary Eclipse™ Fluorescence Spectrophotometer (Agilent) operating with Cary Eclipse™ WinFLR software version 1.2 in ‘Scan Mode’. The instrument method parameters were as follows: excitation wavelength was 280 nm, the acquisition range was from 290 nm to 440 nm and the photomultiplier tube sensitivity was set to ‘medium’. Samples were prepared at final concentrations of 1 μM for Gal3C[T243C] or 5 μM Gal3C[T243C]-PEG in 800 ∥L, in PBS for each titration. Samples were pipetted into 0.7×0.7 cm quartz cuvettes with a micro stir bar. Each new experiment was first zeroed against PBS to remove the small background signal from the buffer. […]
(§2) The binding affinity and specificity of Gal3C[T243C]-PEG was compared with Gal3C[T243C] and Gal3C (see FIG. 1C, FIG. 9 and FIG. 10) via an inherent tryptophan fluorescence assay optimized to ensure equilibrium binding conditions. Binding of lactose or LacNac quenches the fluorescence of W181, located adjacent to the bound sugar in the crystal structure of Gal3C, thus permitting direct measurement of ligand Kd values.

[3] = Equilibrium binding of LacNac, intrinsic tryptophan fluorescence; details: ligand LacNac; average ± standard deviation of 3 replicated experiments; PBS; read-out: Kd (equilibrium binding constant)
Procedure: as §1
as §2, with “values. […]” for “values.”

[4] = test system: breast cancer; details: breast cancer animal models; cited from earlier work

| Molecule | Tm1 ± StDev [1] [°C] | Tm1 ± StDev ([1]; listed as Gal3C[T243C,K139I]) [°C] | thermal unfolding behaviour / formation of unfolding intermediate [1] | Tm2 ± StDev [1] | Tm / Tm1 ([1]; values of Summary of Results, Tm for unconjugated protein, Tm1 for PEG conjugate) [°C] | Kd [2] [µM] | Kd [3] [µM] | fitted melting temperature (Tm) ([1]; FIG. 13, normalized CD intensity at 220 nm, Boltzmann sigmoidal fit) [°C] | tumor growth [4] | Tm1 ± StDev ([1]; listed as Gal3C[T243C,K139I,K196I]) [°C] |
| --- | --- | --- | --- | --- | --- | --- | --- | --- | --- | --- |
| Gal3C[T243C, K139I]: Gal3C[T243C] variant with lysine K139 replaced by isoleucine | 52.5 ± 0.4 | 52.5 | cooperative one step unfolding | ND^b (Higher than detectable by instrument (>90° C.)) | 52.7 |  |  |  |  |  |
| B1 | 58.8 ± 0.6 |  |  |  |  | 529 ± 125 | 231 ± 32.3 | 58.4 | inhibiting tumor growth |  |
| B2 | 60.5 ± 0.6 |  | cooperative one step unfolding | ND^b (Higher than detectable by instrument (>90° C.)) |  |  |  |  |  | 60.5 |
| B3 |  |  | significantly altered unfolding profile |  |  |  |  |  |  |  |
